Source: the DeepSol protein solubility set

Assay: soluble on expression in E. coli; label from the status in PepcDB or PDB records

Sequence: MAISRELVDPNSSPREIEVSEPREVGITELVLRDAHQSLMATRMAMEDMVGACADIDAAGYWSVECWGGTTYDSCIRFLNEDPWERLRTFRKLMPNSRLQMLLRGQNLLGYRHYNDEVVDRFVDKSAENGMDVFRVFDAMNDPRNMAHAMAAVKKAGKHAQGTICYTISPVHTVEGYVKLAGQLLDMGADSIALKDMAALLKPQPAYDIIKAIKDTYGQKTQINLHCHSTTGVTEVSLMKAIEAGVDVVDTAISSMSLGPGHNPTESVAEMLEGTGYTTNLDYDRLHKIRDHFKAIRPKYKKFESKTLVDTSIFKSQIPGGMLSNMESQLRAQGAEDKMDEVMAEVPRVRKAAGFPPLVTPSSQIVGTQAVFNVMMGEYKRMTGEFADIMLGYYGASPADRDPKVVKLAEEQSGKKPITQRPADLLPPEWEKQSKEAATLKGFNGTDEDVLTYALFPQVAPVFFEHRAEGPHSVALTDAQLKAEAEGDEKSLAVAGPVTYNVNVGGTVREVTVQQATRASQPELAPEDPEDLEHHHHHH
- soluble on expression in E. coli: soluble

Sequence: MEENSKLGLIDVFTGDGKGKTTAAFGLAFRALGWGYRVYILQFMKTGVYGENKSAIMFDRNLKVDFVGMPYFIAWENEIPKEDLDKVKNVVICKKGHPPDDYRRAVKERFDRSLEELKSGKWDMFIYDEINVALYYYLLSMEEVMEIFKAKPDHTELVFTGRKMPKEIMERADLITEVSSPRHPYQRGILARRGVDF
- soluble on expression in E. coli: not soluble

Sequence: MNHFELYKLKKAGLTNKNILNILDYQKHQEKSLSLRDMAVVSGCKHPSHFIEAYKQLDIQNLKMEFKQFPSISILDKHYPMALKEIYNPPVLLFFQGNLDLLEKPKLAIVGSRRSSDTGVKSVRKILKELGNRFVIVSGLARGIDTSAHLACLKNGGQTIAIIGTGLDRFYPKENRELQTFLGKNHLVLTEYGPGEEALSYHFPERNRIIAGLSRGILVVEAKNRSGSLITCQIGIEEGRDIFAVPGNILDGKSEGCLQLIKEGATCVTSGMDILSEY
- soluble on expression in E. coli: not soluble

Sequence: MNKIIKYIGASAVVCMMAGCTTNFEDFNTNPYQPSKVPASNLLSTMFNVYACPQQNACQEINCMWASFSGQVTATANWSFGKNIFAYYNASEGHNDSSWGRLYGYIYPSFFLVENSTEKKGVIYAMAQLTRVYGMQLLASLQGPIPYTQMKAGETEAPYDNEQTVWHAMFDDLDNAITILKSAATFGVNQDLAVVDQFYKGDCSKWLKFANTLKLRMAIRISGVEPEYAQTKAQEAVLGGVMESVGDSSYDTTNGGINENGYAIVSGWPEVRANACLVSYMNGYNDPRRPAYFTPQTQTAAGGYVGVRSGSAEIPEPTVYANYSKLFIATDKTLPQPVMYAAEAAFLRAEGALKGWNMGGDAKTFYEKGVRLSFEEFGVSGADDYLADATSIPGNYVDNLIAGHTGNNYTNQSSITIKWEDGADDAKKLERVLTQKWIACYPDPMNGWADFRRTGYPRIFPATESMNADCNTGRGQRRLRFTRSEYNNNKANVEAAVSMLSNGKDSNGTDLWWAMKENGTY
- soluble on expression in E. coli: not soluble

Sequence: MNRLPVDDVIPDLLTALEQRNAAVLQAPPGAGKTTRVPLALLDAPWLNGKRIIMLEPRRLAATNAARWMARSLGEEAGATVGYAIRFDRRVSARTRVEVVTEGILTRRLQSDPLLEGVGAVIFDEFHERSIHSDLALALCRDVQAGLREDLRIIVMSA
- soluble on expression in E. coli: not soluble

Sequence: MINFEATELRLGLPGGNHGGEMAGKNNGKRGFSETVDLKLNLSSTAMDSVSKVDLENMKEKVVKPPAKAQVVGWPPVRSFRKNVMSGQKPTTGDATEGNDKTSGSSGATSSASACATVAYVKVSMDGAPYLRKIDLKLYKTYQDLSNALSKMFSSFTIGNYGPQGMKDFMNESKLIDLLNGSDYVPTYEDKDGDWMLVGDVPWEMFVDSCKRIRIMKGSEAIGLAPRALEKCKNRS
- soluble on expression in E. coli: soluble

Sequence: MSLKEPRWRDPELPEVLAMLRHPVDPVKANAAAYLQHLCFENEGVKRRVRQLRGLPLLVALLDHPRAEVRRRACGALRNLSYGRDTDNKAAIRDCGGVPALVRLLRAARDNEVRELVTGTLWNLSSYEPLKMVIIDHGLQTLTHEVIVPHSGWEREPNEDSKPRDAEWTTVFKNTSGCLRNVSSDGAEARRRLRECEGLVDALLHALQSAVGRKDTDNKSVENCVCIMRNLSYHVHKEVPGADRYQEAEPGPLGSAVGSQRRRRDDASCFGGKKAKEEWFHQGKKDGEMDRNFDTLDLPKRTEAAKGFELLYQPEVVRLYLSLLTESRNFNTLEAAAGALQNLSAGNWMWATYIRATVRKERGLPVLVELLQSETDKVVRAVAIALRNLSLDRRNKDLIGSYAMAELVRNVRNAQAPPRPGACLEEDTVVAVLNTIHEIVSDSLDNARSLLQARGVPALVALVASSQSVREAKAASHVLQTVWSYKELRGTLQKDGWTKARFQSAAATAKGPKEGHHHHHH
- soluble on expression in E. coli: not soluble
